Data reported in patent publication EP4640708A1 (Chimagen Biosciences, Ltd, dated 2025).

How the values were obtained:
[1] = target: T1, human GPRC5D (hGPRC5D) on cells (human, UniProt Q9NZD1 1-345); assay: flow cytometry, MM.1R cells naturally expressing GPRC5D
T1 construct: whole, on cells; also called HEK293-hGPRC5D; CHOS-hGPRC5D

[2] = target: T1, human GPRC5D (hGPRC5D) on cells; assay: flow cytometry, NCI-H929 cells naturally expressing GPRC5D
[3] = target: T1, human GPRC5D (hGPRC5D) on cells; assay: flow cytometry, RPMI-8226 cells naturally expressing GPRC5D

T1 sequence (Q9NZD1 whole entry): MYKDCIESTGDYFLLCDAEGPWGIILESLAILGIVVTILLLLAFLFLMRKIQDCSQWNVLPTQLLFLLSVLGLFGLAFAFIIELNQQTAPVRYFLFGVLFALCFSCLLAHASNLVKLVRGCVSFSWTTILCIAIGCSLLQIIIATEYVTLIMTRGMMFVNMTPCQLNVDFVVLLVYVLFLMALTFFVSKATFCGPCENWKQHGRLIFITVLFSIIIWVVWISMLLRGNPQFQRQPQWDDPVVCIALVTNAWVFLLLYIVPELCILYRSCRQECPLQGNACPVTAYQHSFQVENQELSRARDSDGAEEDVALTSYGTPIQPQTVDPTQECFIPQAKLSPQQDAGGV

- EC50 [1]: 7.2 µg/mL
- EC50 [2]: 9.52 µg/mL
- EC50 [3]: 14.3 µg/mL
B1: GC5B596 (antibody, V domains shown)
VH: QVQLVQSGAEVKKPGASVKVSCKASGYSFTGYTMNWVRQAPGQGLEWMGLINPYNSDTNYAQKLQGRVTMTTDTSTSTAYMELRSLRSDDTAVYYCARVALRVALDYWGQGTLVTVSS
VL: DIQMTQSPSSLSASVGDRVTITCKASQNVATHVGWYQQKPGKAPKRLIYSASYRYSGVPSRFSGSGSGTEFTLTISNLQPEDFATYYCQQYNRYPYTFGQGTKLEIKR
